Values joined by “and” are separate entries in the source; they are usually repeats but may differ in a detail not shown here. Equal entries are not always repeated. Values belong to the substance of their own block, whether it stands above or below them.
Assays:
[1] = target: MyoF-Motor (MyoF lacking its WD40 tail domain, a.a. 1–1265, C-terminal biotin–FLAG tag), heavy chain (T. gondii); assay: negative-stain electron microscopy; negatively stained images of purified myosin constructs with co-purified light chain
[2] = target: MyoF-Tail (coiled-coil region, linker and WD40 domain, a.a. 987–1953, C-terminal biotin–FLAG tag) (T. gondii); assay: SEC; analytical; 0.25 mg/ml MyoF-Tail on Superdex 10/300 GL; 10 mM imidazole pH 7.4, 300 mM NaCl, 1 mM EGTA, 1 mM DTT; standards ferritin 440 kDa and thyroglobulin 660 kDa
[3] = target: MyoF-Motor (MyoF lacking its WD40 tail domain, a.a. 1–1265, C-terminal biotin–FLAG tag), heavy chain (T. gondii)
[4] = target: MyoF-Motor (MyoF lacking its WD40 tail domain, a.a. 1–1265, C-terminal biotin–FLAG tag), heavy chain (T. gondii); assay: thermal denaturation (calmodulin-binding) assay
[5] = target: Toxoplasma gondii actin (TgAct1) filaments (T. gondii) (UniProt P53476)
[6] = target: Toxoplasma gondii actin (TgAct1) filaments (T. gondii) (UniProt P53476); assay: single-molecule motility assay (fluorescence microscopy); full-length MyoF mixed 1:5 with Alexa Fluor 647–streptavidin; TgAct1 filaments (jasplakinolide-stabilised or unstabilised) or skeletal actin-fascin bundles (phalloidin or jasplakinolide) held on the flow cell; 2 mM MgATP; 37°C
[7] = target: full-length MyoF with a C-terminal biotin–FLAG tag, heavy chain (T. gondii); assay: negative-stain electron microscopy; negatively stained images of purified myosin constructs with co-purified light chain

stoichiometry N [1]: 2
Substance: MyoF-Motor (MyoF lacking its WD40 tail domain, a.a. 1–1265, C-terminal biotin–FLAG tag), heavy chain (domain or fragment)

stoichiometry N [2]: > 6
Substance: MyoF-Tail (coiled-coil region, linker and WD40 domain, a.a. 987–1953, C-terminal biotin–FLAG tag) (domain or fragment)

Substance: TgCam (calmodulin), untagged, co-expressed in Sf9 cells (natural protein)
in vitro gliding filament motility speed of MyoF-Motor bound to only TgCam (skeletal actin) [3]: 1.2 µm/s | stoichiometry N (calmodulin light chains per heavy chain) [4]: 3

Substance: full-length MyoF co-purified with TgCam (complex)
run length (λ) of single full-length MyoF complexes on jasplakinolide-stabilized TgAct1 filaments [5]: 1.14 µm | velocity of single full-length MyoF complexes on jasplakinolide-stabilized TgAct1 filaments [5]: 1.5 µm/s | pause time at filament ends [6]: 1.5 s

stoichiometry N [7]: 3 heads and 6 heads
Substance: full-length MyoF with a C-terminal biotin–FLAG tag, heavy chain (natural protein)

— publication PMC13120683
